Data on eight molecules can be found in patent US20240270821A1, “GIP/GLP1/GCG TRI-RECEPTOR AGONISTS AND USES THEREOF” (priority 2023, published 2024).

Where a chain is given by its changes, count along the chain named.

T1: human GIP receptor (human) (UniProt P48546)
T1 sequence (looked up): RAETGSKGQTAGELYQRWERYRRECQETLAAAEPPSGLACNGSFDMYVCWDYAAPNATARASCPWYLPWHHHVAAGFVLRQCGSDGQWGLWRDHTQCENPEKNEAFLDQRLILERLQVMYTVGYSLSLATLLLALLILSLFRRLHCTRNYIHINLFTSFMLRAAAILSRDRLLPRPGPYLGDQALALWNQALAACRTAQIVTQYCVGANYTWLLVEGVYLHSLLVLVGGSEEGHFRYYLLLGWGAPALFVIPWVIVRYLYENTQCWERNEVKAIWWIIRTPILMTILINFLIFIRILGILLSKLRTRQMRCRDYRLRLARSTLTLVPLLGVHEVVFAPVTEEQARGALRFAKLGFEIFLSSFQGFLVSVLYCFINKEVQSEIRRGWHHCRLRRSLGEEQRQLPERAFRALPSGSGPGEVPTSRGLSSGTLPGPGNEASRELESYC

B1: Example 165 (peptide)
chain: YXQGTFTSDFSXXLDKKAQXAFIEYLLEXGPSSGAPPPSGT
modifications: non-natural residues, acylated Lys, C-terminal amide; synthetic construct; SITE 2: note = 2-Aminoisobutyric Acid; SITE 12: note = L-ornithine; SITE 13: note = alpha-methyl-leucine; SITE 17: note = Lysine is chemically modified through conjugation of the epsilon-amino group of the Lysine side chain with (2-[2-(2-Amino-ethoxy)-ethoxy]-acetyl)2-(gamma-Glu)
B2: Example 171 (peptide)
chain: B1 chain with Y25W, X29G, P31H
modifications: Aib, Orn, αMeL; K acylated AEEA-γGlu-C18 diacid; C-terminal amide; synthetic construct; SITE 2: note = 2-Aminoisobutyric Acid; SITE 12: note = L-ornithine; SITE 13: note = alpha-methyl-leucine; SITE 17: note = Lysine is chemically modified through conjugation of the epsilon-amino group of the Lysine side chain with (2-[2-(2-Amino-ethoxy)-ethoxy]-acetyl)-(gamma-Glu)
B3: Example 177 (peptide)
chain: B1 chain with Y25W, X29G, P31T
modifications: non-natural residues, AEEA-γGlu-C18 diacid acylation, C-terminal amide; synthetic construct; SITE 2: note = 2-Aminoisobutyric Acid; SITE 12: note = L-ornithine; SITE 13: note = alpha-methyl-leucine; SITE 17: note = Lysine is chemically modified through conjugation of the epsilon-amino group of the Lysine side chain with (2-[2-(2-Amino-ethoxy)-ethoxy]-acetyl)-(gamma-Glu)
B4: Example 179 (peptide)
chain: B1 chain with P31E, T41S
modifications: non-natural residues (Aib, Orn, αMeL); lipidated K; C-terminal amide; synthetic construct; SITE 2: note = 2-Aminoisobutyric Acid; SITE 12: note = L-ornithine; SITE 13: note = alpha-methyl-leucine; SITE 17: note = Lysine is chemically modified through conjugation of the epsilon-amino group of the Lysine side chain with (2-[2-(2-Amino-ethoxy)-ethoxy]-acetyl)2-(gamma-Glu)
B5: Example 172 (peptide)
chain: B1 chain with Y25W, X29G, P31S, T41E
modifications: Aib, Orn, αMeL, acylated Lys, amide; synthetic construct; SITE 2: note = 2-Aminoisobutyric Acid; SITE 12: note = L-ornithine; SITE 13: note = alpha-methyl-leucine; SITE 17: note = Lysine is chemically modified through conjugation of the epsilon-amino group of the Lysine side chain with (2-[2-(2-Amino-ethoxy)-ethoxy]-acetyl)-(gamma-Glu)
B6: Example 166 (peptide)
chain: B1 chain with A35E, T41S
modifications: Aib, Orn, αMeL, acylated K, C-terminal amide; synthetic construct; SITE 2: note = 2-Aminoisobutyric Acid; SITE 12: note = L-ornithine; SITE 13: note = alpha-methyl-leucine; SITE 17: note = Lysine is chemically modified through conjugation of the epsilon-amino group of the Lysine side chain with (2-[2-(2-Amino-ethoxy)-ethoxy]-acetyl)2-(gamma-Glu)
B7: Example 186 (peptide)
chain: B1 chain with P31H, T41E
modifications: Aib, Orn, αMeL; AEEA2-γGlu-C18 diacid acyl; C-terminal amide; synthetic construct; SITE 2: note = 2-Aminoisobutyric Acid; SITE 12: note = L-ornithine; SITE 13: note = alpha-methyl-leucine; SITE 17: note = Lysine is chemically modified through conjugation of the epsilon-amino group of the Lysine side chain with (2-[2-(2-Amino-ethoxy)-ethoxy]-acetyl)2-(gamma-Glu)
B8: Example 175 (peptide)
chain: B1 chain with Y25W, X29G, P31T, T41E
modifications: Aib, Orn, αMeL; acylated Lys C18 diacid; C-term amide; synthetic construct; SITE 2: note = 2-Aminoisobutyric Acid; SITE 12: note = L-ornithine; SITE 13: note = alpha-methyl-leucine; SITE 17: note = Lysine is chemically modified through conjugation of the epsilon-amino group of the Lysine side chain with (2-[2-(2-Amino-ethoxy)-ethoxy]-acetyl)-(gamma-Glu)

hGLP-1R, sequence (P43220 24-463): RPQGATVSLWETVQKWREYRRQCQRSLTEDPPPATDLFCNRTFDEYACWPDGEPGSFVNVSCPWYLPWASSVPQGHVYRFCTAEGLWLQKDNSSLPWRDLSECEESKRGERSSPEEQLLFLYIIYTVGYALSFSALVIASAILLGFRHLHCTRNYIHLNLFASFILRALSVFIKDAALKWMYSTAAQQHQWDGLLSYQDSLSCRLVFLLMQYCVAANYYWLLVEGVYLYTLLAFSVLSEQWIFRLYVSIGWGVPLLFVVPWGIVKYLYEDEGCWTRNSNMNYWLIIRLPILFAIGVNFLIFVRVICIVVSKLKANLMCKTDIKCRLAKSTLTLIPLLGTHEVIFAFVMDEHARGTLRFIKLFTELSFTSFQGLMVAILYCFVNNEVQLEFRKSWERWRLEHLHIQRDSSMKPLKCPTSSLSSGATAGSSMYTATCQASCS

The first test has as its target hGLP-1R (Homo sapiens, UniProt P43220). Briefly: cell-based or functional assay.
The molecule B1 displayed a Relative cAMP EC50, nM (0.1% casein) of 6.52 nM and a cAMP Rel EC50, nM (1% HSA) of 808 nM.
For B2, the Relative cAMP EC50, nM (0.1% casein) was found to be 2.89 nM and the cAMP Rel EC50, nM (1% HSA) amounted to 287 nM.
For B3 the same measures were 2.97 nM and 483 nM.
The molecule B4 displayed a Relative cAMP EC50, nM (0.1% casein) of 5.81 nM and a cAMP Rel EC50, nM (1% HSA) of 904 nM.
In turn, B5 showed a Relative cAMP EC50, nM (0.1% casein) of 3.5 nM and a cAMP Rel EC50, nM (1% HSA) of 457 nM.
In the case of B6, the Relative cAMP EC50, nM (0.1% casein) came to 6.96 nM and the cAMP Rel EC50, nM (1% HSA) came to 1500 nM.
B7 showed a Relative cAMP EC50, nM (0.1% casein) of 5.26 nM and a cAMP Rel EC50, nM (1% HSA) of 690 nM.
Molecule B8 showed a Relative cAMP EC50, nM (0.1% casein) of 4 nM and a cAMP Rel EC50, nM (1% HSA) of 386 nM.

The target in a further test is T1, human GIP receptor (human). Briefly: cell-based or functional assay.
B1 displayed a Relative cAMP EC50, nM (0.1% casein) of 0.0956 nM and a cAMP Rel EC50, nM (1% HSA) of 18.6 nM.
In the case of B2, the Relative cAMP EC50, nM (0.1% casein) was found to be 0.2 nM and the cAMP Rel EC50, nM (1% HSA) was 27.1 nM.
With B3, the Relative cAMP EC50, nM (0.1% casein) was 0.213 nM and the cAMP Rel EC50, nM (1% HSA) was determined as 34.8 nM.
Take B4: the Relative cAMP EC50, nM (0.1% casein) worked out at 0.104 nM and the cAMP Rel EC50, nM (1% HSA) was 21.3 nM.
On to B5, for which the Relative cAMP EC50, nM (0.1% casein) is 0.174 nM and the cAMP Rel EC50, nM (1% HSA) was 29.3 nM.
With B6, the Relative cAMP EC50, nM (0.1% casein) came out at 0.118 nM and the cAMP Rel EC50, nM (1% HSA) stood at 21 nM.
Regarding B7, the Relative cAMP EC50, nM (0.1% casein) turned out to be 0.107 nM and the cAMP Rel EC50, nM (1% HSA) is 18 nM.
For the molecule B8, the Relative cAMP EC50, nM (0.1% casein) came to 0.218 nM and the cAMP Rel EC50, nM (1% HSA) came to 29.6 nM.

The target of another test is human GLP-1R (SNAP-GLP-1R expressed in HEK293 cells) (human) (UniProt P43220). Kind of test: cell-based or functional assay.
human GLP-1R (SNAP-GLP-1R expressed in HEK293 cells) (human), sequence (P43220 24-463): as above
The molecule B1 yielded a GLP1R Internalization EC50 of 57.5 nM and an Internalization % TOP of 44.5%.
In turn, B2 returned a GLP1R Internalization EC50 of 61.4 nM and an Internalization % TOP of 36.1%.
For B3, the GLP1R Internalization EC50 was 79.4 nM and the Internalization % TOP came out at 44%.
B4 registered a GLP1R Internalization EC50 of 63.4 nM and an Internalization % TOP of 48.4%.
B5: the GLP1R Internalization EC50 is 121 nM and the Internalization % TOP is 41.4%.
For B6 the same measures were 74.6 nM and 44.2%.
For B7 the same measures were 124 nM and 41.1%.
The molecule B8 came in with a GLP1R Internalization EC50 of 116 nM and an Internalization % TOP of 49.2%.

The target in a further test is human glucagon receptor (human) (UniProt P47871). Briefly: cell-based or functional assay.
human glucagon receptor (human), sequence (P47871 26-477): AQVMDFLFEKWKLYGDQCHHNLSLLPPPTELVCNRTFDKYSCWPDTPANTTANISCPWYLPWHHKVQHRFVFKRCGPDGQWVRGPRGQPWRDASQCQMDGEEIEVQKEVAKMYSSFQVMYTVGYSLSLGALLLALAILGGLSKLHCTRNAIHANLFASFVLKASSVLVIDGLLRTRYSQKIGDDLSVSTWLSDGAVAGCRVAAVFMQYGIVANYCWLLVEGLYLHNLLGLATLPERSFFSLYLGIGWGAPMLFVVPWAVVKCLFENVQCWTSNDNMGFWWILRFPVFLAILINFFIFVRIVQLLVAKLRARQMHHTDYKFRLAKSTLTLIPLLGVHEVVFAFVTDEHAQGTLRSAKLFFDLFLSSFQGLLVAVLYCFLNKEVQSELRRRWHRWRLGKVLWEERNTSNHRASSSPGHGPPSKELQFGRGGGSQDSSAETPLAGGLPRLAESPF
B1 returned a Relative cAMP EC50, nM (0.1% casein) of 4.47 nM and a cAMP Rel EC50, nM (1% HSA) of 1250 nM.
For the molecule B2, the Relative cAMP EC50, nM (0.1% casein) stood at 3.86 nM and the cAMP Rel EC50, nM (1% HSA) worked out at 502 nM.
The matching figures for B3: 4.22 nM and 758 nM.
B4 showed a Relative cAMP EC50, nM (0.1% casein) of 4.82 nM and a cAMP Rel EC50, nM (1% HSA) of 1440 nM.
As for B5, the Relative cAMP EC50, nM (0.1% casein) is 3.38 nM and the cAMP Rel EC50, nM (1% HSA) stood at 605 nM.
B6 registered a Relative cAMP EC50, nM (0.1% casein) of 3.82 nM and a cAMP Rel EC50, nM (1% HSA) of 724 nM.
Regarding B7, the Relative cAMP EC50, nM (0.1% casein) was found to be 4.67 nM and the cAMP Rel EC50, nM (1% HSA) came out at 1280 nM.
In turn, B8 displayed a Relative cAMP EC50, nM (0.1% casein) of 4.92 nM and a cAMP Rel EC50, nM (1% HSA) of 579 nM.
